Where only a bound is given, the exact number is not on record here.

We go through 4 sequences from PMC7133447.

The target in data set [1] is T1, epithelial cell adhesion molecule (EpCAM) on MDA-MB-231 cells (human) (UniProt P16422).
T1 sequence: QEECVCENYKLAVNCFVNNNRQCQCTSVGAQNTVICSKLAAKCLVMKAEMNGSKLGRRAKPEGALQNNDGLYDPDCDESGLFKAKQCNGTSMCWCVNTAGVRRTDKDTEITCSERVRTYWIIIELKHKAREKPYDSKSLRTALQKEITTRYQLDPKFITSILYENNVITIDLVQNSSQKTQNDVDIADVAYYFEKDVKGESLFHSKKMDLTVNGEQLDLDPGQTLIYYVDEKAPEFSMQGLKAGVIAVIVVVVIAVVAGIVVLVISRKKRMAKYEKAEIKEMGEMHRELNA
Description: flow cytometry (MDA-MB-231 cells). The note with it: Live-cell flow cytometry, 5e5 cells, 0-400 nM aptamer, PBS with 10% FCS, 0.1 mg/mL tRNA, 0.1 mg/mL BSA, 60 min, 37 C, aptamer folded in PBS with 5 mM MgCl2. A general note: A flow cytometer gives signals particle by particle.

In data set [2] the target is transferrin receptor (TfR) on bEnd.3 cells (mouse) (UniProt Q62351). Description: flow cytometry (bEnd.3 cells). The note with it: Live-cell flow cytometry, 5e5 cells, 0-400 nM aptamer, PBS with 10% FCS, 0.1 mg/mL tRNA, 0.1 mg/mL BSA, 60 min, 37 C, aptamer folded in PBS with 5 mM MgCl2.
Sequence of transferrin receptor (TfR) on bEnd.3 cells (mouse) (Q62351 whole entry): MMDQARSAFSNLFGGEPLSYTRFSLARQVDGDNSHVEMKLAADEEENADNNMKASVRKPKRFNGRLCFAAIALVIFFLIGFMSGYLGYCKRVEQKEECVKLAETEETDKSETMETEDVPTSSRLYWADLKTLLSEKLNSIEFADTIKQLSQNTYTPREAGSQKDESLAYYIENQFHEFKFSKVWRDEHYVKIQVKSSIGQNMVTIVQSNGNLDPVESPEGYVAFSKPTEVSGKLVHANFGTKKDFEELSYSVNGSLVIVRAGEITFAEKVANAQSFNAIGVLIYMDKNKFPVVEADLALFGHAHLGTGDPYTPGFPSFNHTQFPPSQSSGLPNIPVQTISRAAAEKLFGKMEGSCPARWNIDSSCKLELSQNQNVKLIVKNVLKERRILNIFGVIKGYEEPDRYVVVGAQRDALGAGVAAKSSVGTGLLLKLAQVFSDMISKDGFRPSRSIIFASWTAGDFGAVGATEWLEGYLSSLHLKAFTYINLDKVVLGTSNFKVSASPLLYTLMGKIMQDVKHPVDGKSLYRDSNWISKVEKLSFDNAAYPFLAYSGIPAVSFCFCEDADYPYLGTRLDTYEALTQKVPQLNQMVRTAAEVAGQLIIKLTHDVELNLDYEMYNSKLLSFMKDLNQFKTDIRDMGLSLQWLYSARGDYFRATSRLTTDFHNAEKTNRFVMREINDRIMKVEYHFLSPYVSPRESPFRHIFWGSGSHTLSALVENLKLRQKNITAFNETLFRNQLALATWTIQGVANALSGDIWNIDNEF
Data set [3] concerns the target transferrin receptor (TfR) / EpCAM on 4T1 cells (mouse) (UniProt Q62351). Description: flow cytometry (4T1 cells). The conditions noted are these: Live-cell flow cytometry, 5e5 cells, 0-400 nM aptamer, PBS with 10% FCS, 0.1 mg/mL tRNA, 0.1 mg/mL BSA, 60 min, 37 C; aptamer folded in PBS with 5 mM MgCl2.
Setting [4] is: doxorubicin intercalated (non-covalent, about 2-3 per aptamer).

Sequence of transferrin receptor (TfR) / EpCAM on 4T1 cells (mouse) (Q62351 whole entry): as above

The term Kd denotes a measure of binding affinity in units of concentration. On to “GCGCGGTACCGCGCTAACGGAGGTTGCGTCCGT [TEPP-DOX]”, for which the results for the Kd in data set [1] (setting [4]) and in data set [2] (setting [4]) were 536 nM and 119 nM, respectively.
Turning to “GCGCGGTACCGCGCTAACGGAGGTTGCGTCCGT [TEPP]”, the Kd in data set [3] was 27.6 nM; in data set [1] (cited from earlier work), 85.6 nM; in data set [2] (cited from earlier work), 110 nM.
“GCGCGTGCACGCGCTAACGGATTCCTTTTCCGT [TENN-DOX]”: the dissociation constant Kd in data set [1] (setting [4]) is above 10000 nM; in data set [2] (setting [4]), 865 nM.
For the sequence “GCGCGTGCACGCGCTAACGGATTCCTTTTCCGT [TENN]”, the Kd in data set [1] (cited from earlier work) and in data set [2] (cited from earlier work) was above 10000 nM in each case.
